# Laboratory results as given in patent publication US10563171B2, “Method for inducing differentiation of pluripotent stem cells into germ cells” (Kyoto University, priority 2015, dated 2020).
# B1: BMP4: bone morphogenetic 4 (protein, UniProt P12644 293-408, looked up)
# Bone morphogenetic protein 4: SPKHHSQRARKKNKNCRRHSLYVDFSDVGWNDWIVAPPGYQAFYCHGDCPFPLADHLNSTNHAIVQTLVNSVNSSIPKACCVPTELSAISMLYLDEYDKVVLKNYQEMVVEGCGCR
# What was measured:
# iMeLCs = assay: Induction of BTAG positive cells (hPGCLCs) from iMeLCs in floating aggregates; assay type: cell-based, human; conditions: combination of BMP4, LIF, SCF and EGF changed; FIG. 11A-D
# Protocol: (§1) Initial mesoderm-like cells (iMeLCs) were induced by seeding hiPSCs maintained in StemFit™ in a 12 well plate coated with human plasma fibronectin (Millipore, FC010) at 1.0-2.0×10^5 cells per well in GK15 medium [GMEM containing 15% KSR, 0.1 mM NEAA, 2 mM L-glutamine, 1 mM sodium pyruvate and 0.1 mM 2-mercaptoethanol (Life Technologies)] containing 50 ng/ml activin A, 3 μM CHIR99021 and 10 μM ROCK inhibitor (Y-27632; Wako Pure Chemical Industries). The hiPSCs were induced by seeding in a low-cell-binding V-bottom 96 wellplate (Thermo, 81100574) at 3.0×10^3 cells per well in GK15 added with 1000 U/ml LlF (Millipore, #LIF1005), 200 ng/ml BMP 4,100 ng/ml SCF (R&D Systems, 455-MC), 50 ng/ml EGF (R&D Systems, 236-EG), and 10 μM ROCK inhibitor. For investigation of conditions and induction of iMeLCs or hPGCLC, PD173074 (StemGent, #04-0008) or LDN193189 (StemGent, #04-0074) was respectively added. Other than the above, WNT3A (R&D Systems, 5036-WN) was used instead of CHIR99021, and BMP2 (R&D Systems, 355-BM), BMP7 (R&D Systems, 354-BP), or BMP8A (R&D Systems, 1073-BP) was used instead of BMP4.
# (§2) Floating aggregates containing hPGCLCs were separated by treating with 0.05% Trypsin-EDTA/PBS at 37° C. for 10 min. […] The collected cells were suspended in FACS buffer (0.1% BSA in PBS) and analyzed by a flow cytometer (ARIA III; BD Biosciences). […]
# BTAG 585B1-868 hiPSCs = assay: Induction of iMeLCs from hiPSCs having induction capacity into BTAG positive cells (FACS of BTAG(+) cells); assay type: cell-based, human; conditions: added during induction of iMeLC; FIG. 10D, 10E
# Protocol: as §1, §2
molecule,measurement,setting,value
B1,role in induction of BTAG positive cells from iMeLCs,iMeLCs,essential
same,effect of signaling on iMeLCs induction,BTAG 585B1-868 hiPSCs,acts negatively
